Experiment [1] addresses T1, rHuman EGF R/Fc Chimera, CF (R&D Systems Cat#344-ER) (human, UniProt P00533 25-645).
T1 construct: Bought recombinant protein; also called epidermal growth factor receptor (EGF R); Fc part of the bought chimera not given
Put plainly: Multispot ECL (MSD), antigen spotted on plate, Fab 0.25 uM; blank spot 6344.

In experiment [2] the target is T2, rHuman Erythropoietin R/Fc Chimera, CF (R&D Systems Cat#963-ER) (human, UniProt P19235 25-250).
T2 construct: Bought recombinant protein; also called EPO R/Fc; Epo R; Fc part of the bought chimera not given
T2 sequence (looked up): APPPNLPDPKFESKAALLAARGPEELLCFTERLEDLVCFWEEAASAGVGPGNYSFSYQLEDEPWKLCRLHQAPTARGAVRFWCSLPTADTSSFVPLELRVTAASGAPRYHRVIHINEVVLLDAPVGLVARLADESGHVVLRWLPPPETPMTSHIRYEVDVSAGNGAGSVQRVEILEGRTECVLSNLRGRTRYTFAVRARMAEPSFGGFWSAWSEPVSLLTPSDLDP
The description is as above.

Experiment [3] concerns the target T3, rHuman IGF-1 sR, CF (R&D Systems Cat#391-GR) (human, UniProt P08069 31-932).
T3 construct: Bought recombinant soluble receptor; also called insulin-like growth factor-1 soluble receptor
The experiment is described as above.

The target in experiment [4] is T1, rHuman EGF R/Fc Chimera, CF (R&D …). Put plainly: Multispot ECL (MSD), antigen spotted on plate, Fab 0.00391 uM; blank spot 576.
The target in experiment [5] is T2, rHuman Erythropoietin R/Fc Chimera, CF …. Described as above.
Experiment [6] addresses T3, rHuman IGF-1 sR, CF (R&D Systems …). Described as above.
In experiment [7] the target is T1, rHuman EGF R/Fc Chimera, CF (R&D …). Put plainly: Multispot ECL (MSD), antigen spotted on plate, Fab 0.01563 uM; blank spot 906.
The target in experiment [8] is T2, rHuman Erythropoietin R/Fc Chimera, CF …. The experiment is described as above.
The target in experiment [9] is T3, rHuman IGF-1 sR, CF (R&D Systems …). The description is as above.
Experiment [10] has as its target T1, rHuman EGF R/Fc Chimera, CF (R&D …). In words: Multispot ECL (MSD), antigen spotted on plate, Fab 0.0625 uM; blank spot 1738.
Experiment [11] has as its target T2, rHuman Erythropoietin R/Fc Chimera, CF …. Described as above.
In experiment [12] the target is T3, rHuman IGF-1 sR, CF (R&D Systems …). The description is as above.
Experiment [13] deals with T4, rHuman EGF R/Fc Chimera, CF (R&D Systems Cat#344-ER) (human, UniProt P00533 25-645).
T4 construct: Bought recombinant protein; also called epidermal growth factor receptor; Fc part of the bought chimera not given
In words: ECL multispot (MSD) assay, antigen spotted on plate, 20 nM Fab.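 Further: purified Fab bound to plate-spotted antigen for 1 h at 20 °C, labelled detection antibody added, ratio of antigen ECL signal to same-well blank, ratio ≥4 counted as binder.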

Experiment [14] addresses T5, rHuman Erythropoietin R/Fc Chimera, CF (R&D Systems Cat#963-ER) (human, UniProt P19235 25-250).
T5 construct: Bought recombinant protein; also called EPO R; EPO R/Fc; Fc part of the bought chimera not given
T5 sequence (looked up): T2 sequence (looked up)
The description is as above.

The target in experiment [15] is T6, Recombinant Human DLL4 (R&D Systems Cat#1506-D4/CF) (human, UniProt Q9NR61 27-524).
T6 construct: Bought recombinant protein; also called delta-like protein 4; rHuman DLL4
The description is as above.

Experiment [16] has as its target T7, rHuman P-Cadherin/Fc Chimera, CF (R&D Systems Cat#861-PC) (human, UniProt P22223 108-654).
T7 construct: Bought recombinant protein; Fc part of the bought chimera not given
The description is as above.

Experiment [17] concerns the target T8, rHuman IGF-1 sR, CF (R&D Systems Cat#391-GR) (human, UniProt P08069 31-932).
T8 construct: Bought soluble receptor; also called insulin-like growth factor-1 soluble receptor
The description is as above.

The target of experiment [18] is T9, rHuman CD44/Fc Chimera, CF (R&D Systems Cat#3660-CD) (human, UniProt P16070 21-220).
T9 construct: Bought recombinant protein; Fc part of the bought chimera not given
The experiment is described as above.

For experiment [19], the target named is T10, rHuman ErbB2/Fc Chimera, CF (R&D Systems Cat#1129-ER) (human, UniProt P04626 23-652).
T10 construct: Bought recombinant protein; also called human epidermal growth factor 2 receptor; Fc part of the bought chimera not given
The description is as above.

The target of experiment [20] is T11, rHuman Notch-1/Fc Chimera, CF (R&D Systems Cat#3647-TK) (human, UniProt P46531 19-526).
T11 construct: Bought recombinant protein; Fc part of the bought chimera not given
The experiment is described as above.

For experiment [21], the target named is T12, rHuman HGF R/c-MET/Fc Chimera, CF (R&D Systems Cat#358-MT/CF) (human, UniProt P08581 25-932).
T12 construct: Bought recombinant protein; also called HGF R/Fc; hepatocyte growth factor receptor; Fc part of the bought chimera not given
T12 sequence (P08581 25-932, change not shown): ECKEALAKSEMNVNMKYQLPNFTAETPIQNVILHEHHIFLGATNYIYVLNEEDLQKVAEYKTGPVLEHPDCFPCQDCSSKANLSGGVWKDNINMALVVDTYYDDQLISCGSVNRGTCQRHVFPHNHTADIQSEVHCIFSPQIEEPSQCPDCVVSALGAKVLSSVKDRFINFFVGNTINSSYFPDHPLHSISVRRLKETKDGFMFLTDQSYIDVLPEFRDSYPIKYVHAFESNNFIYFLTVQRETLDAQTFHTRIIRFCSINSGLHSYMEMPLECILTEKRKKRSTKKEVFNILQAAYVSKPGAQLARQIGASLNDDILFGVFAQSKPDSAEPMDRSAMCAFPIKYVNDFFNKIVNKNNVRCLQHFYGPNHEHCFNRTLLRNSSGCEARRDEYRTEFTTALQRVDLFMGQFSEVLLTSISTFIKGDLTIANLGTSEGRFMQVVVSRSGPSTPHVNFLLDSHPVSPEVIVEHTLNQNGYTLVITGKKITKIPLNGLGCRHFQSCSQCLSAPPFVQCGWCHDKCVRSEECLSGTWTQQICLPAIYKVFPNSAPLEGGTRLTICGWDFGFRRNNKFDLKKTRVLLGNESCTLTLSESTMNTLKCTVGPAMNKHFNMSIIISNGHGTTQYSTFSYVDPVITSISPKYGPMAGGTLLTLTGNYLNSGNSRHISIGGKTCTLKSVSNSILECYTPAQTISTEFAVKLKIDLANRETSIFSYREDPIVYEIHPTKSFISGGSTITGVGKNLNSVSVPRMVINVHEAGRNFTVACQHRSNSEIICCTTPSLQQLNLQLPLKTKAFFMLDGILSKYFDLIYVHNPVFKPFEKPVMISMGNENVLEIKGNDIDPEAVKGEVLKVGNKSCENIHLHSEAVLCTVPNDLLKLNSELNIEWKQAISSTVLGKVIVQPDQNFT
The description is as above.

B1: Fab VH1-46_IGHD2-15*01_IGHJ2*01 & L2_IGKJ1*01 (Fab, V domains shown)
VH: QVQLVQSGAEVKKPGASVKVSCKASGYTFTSYYMHWVRQAPGQGLEWMGIINPSGGSTSYAQKFQGRVTMTRDTSTSTVYMELSSLRSEDTAVYYCAREGYCSGGSCYSYWYFDLWGRGTLVTVSS
VL: not shown
notes: Germline library Fab made in E. coli; VH was cloned into Plasmid A (heavy chain constant region CH1, His6 and Flag tags) and the kappa VL into Plasmid C (kappa CL)
For the molecule B1, the ECL signal in experiment [1] turned out to be 117000; in experiment [2], 49200; in experiment [3] it was 11000; in experiment [4] it was 35900; in experiment [5] it was 5020; in [6], 822. Besides, the ECL signal is 70800 in experiment [7]; 11300 in [8]; 1740 in [9]; 94800 in [10]; 21100 in experiment [11]; 3150 in [12].

B2: Fab VH3-23_IGHD2-21*01>3_IGHJ6*01 H100E/S108P/Y113G Y59A & V2-13_IGLJ2*01 (Fab, V domains shown)
VH: EVQLLESGGGLVQPGGSLRLSCAASGFTFSSYAMSWVRQAPGKGLEWVSSISGSGGSTAYADSVKGRFTISRDNSKNTLYLQMNSLRAEDTAVYYCAKEEIVVVIAIPYYYYGYGMDVWGQGTLVTVSS
VL: SSELTQDPAVSVALGQTVRITCQGDSLRSYYASWYQQKPGQAPVLVIYGKNNRPSGIPDRFSGSSSGNTASLTITGAQAEDEADYYCNSRDSSGNHLVVFGGGTKLTVL
notes: Tested as a Fab made in E. coli; also called EPG Y59A
Regarding B2, the “ECL signal/blank ratio (read-out not given)” value in experiment [13] was 1.4; in experiment [14] it was 2.5; in [15], 2.8; in experiment [16], 2.4; in experiment [17], 1.3; in experiment [18], 1.4. Besides, the “ECL signal/blank ratio (read-out not given)” value in experiment [19] is 1.6; in experiment [20] it was 2.1; in experiment [21] it was 3.3.

The values above are taken from US20120316071A1 (published 2012).
